The source of these data is the Immune Epitope Database (IEDB).

pKd: −log10 of the molar value.

Among the targets are HLA-A*11:01; HLA-A*03:01; HLA-A*31:01; HLA-A*33:01; HLA-A*68:01.
Test in all cases: IEDB peptide-MHC binding, purified MHC/competitive/radioactivity; filed as Kd, often an IC50 or EC50 that approximates it; ≥ and ≤ were set here for values at or beyond the usual limits of such assays
The mark [1] stands for this setting: source organism: Vaccinia virus WR.
Where [2] appears, read: source organism: Dengue virus 3 Martinique/1243/1999.
The mark [3] stands for this setting: source organism: Mammarenavirus guanaritoense.
Where [4] appears, read: source organism: SARS coronavirus Tor2.
The mark [5] stands for this setting: source organism: Dengue virus 4 Philippines/H241/1956.

By pKd is commonly meant −log10 of the Kd, conventionally taken in molar units. For SADNHPKMIK, the pKd is 8.69 in the experiment with HLA-A*11:01 (setting [1]); 7.78 with HLA-A*03:01 (setting [1]); 7.47 with HLA-A*31:01 (setting [1]); 6.84 in the experiment with HLA-A*33:01 (setting [1]); 7.82 with HLA-A*68:01 (setting [1]).

Turning to SSIDVDKRTK, the negative-log Kd (pKd) in the experiment with HLA-A*11:01 (setting [1]) is 9.08; with HLA-A*03:01 (setting [1]), 6.31; with HLA-A*31:01 (setting [1]) it was 6.12; with HLA-A*33:01 (setting [1]), 5.05; in the experiment with HLA-A*68:01 (setting [1]), 7.72.

For the sequence VTFKNAHAK, the values for the pKd with HLA-A*11:01 (setting [2]), in the experiment with HLA-A*03:01 (setting [2]) and with HLA-A*68:01 (setting [2]) were 7.23, 8.10 and 7.23, respectively.

For NIPTAIQQVR, the negative logarithm of the Kd (pKd) with HLA-A*68:01 (setting [2]) is 7.14.

With TFKIDAVRY, the pKd is 4.72 in the experiment with HLA-A*11:01 (setting [1]); at most 4.11 in the experiment with HLA-A*03:01 (setting [1]); at most 4.46 with HLA-A*31:01 (setting [1]); at most 4.11 with HLA-A*33:01 (setting [1]); 5.72 with HLA-A*68:01 (setting [1]).

In the case of AISAVYFKAK, the pKd with HLA-A*11:01 (setting [1]) is 7.59; with HLA-A*03:01 (setting [1]), 8.09; with HLA-A*31:01 (setting [1]), 5.79; in the experiment with HLA-A*33:01 (setting [1]) it was at most 4.15; with HLA-A*68:01 (setting [1]), 5.60.

On to TKTAVNMLTH, for which the negative-log Kd (pKd) with HLA-A*31:01 (setting [3]) is 5.12; with HLA-A*33:01 (setting [3]) it was at most 4.45; with HLA-A*68:01 (setting [3]), 6.06.

As to ITKEIKNRDK, the pKd is 4.74 with HLA-A*11:01 (setting [1]); 5.10 in the experiment with HLA-A*03:01 (setting [1]); at most 5.00 with HLA-A*31:01 (setting [1]); at most 4.45 with HLA-A*33:01 (setting [1]); 5.66 with HLA-A*68:01 (setting [1]).

For DVHPGEPVVK, the negative-log Kd (pKd) is at most 4.63 with HLA-A*11:01 (setting [1]); 4.81 with HLA-A*03:01 (setting [1]); at most 4.49 in the experiment with HLA-A*31:01 (setting [1]); at most 4.15 with HLA-A*33:01 (setting [1]); 7.24 in the experiment with HLA-A*68:01 (setting [1]).

As for SSYSLFDMSK, the negative logarithm of the Kd (pKd) is 8.49 with HLA-A*11:01 (setting [4]); 7.74 in the experiment with HLA-A*03:01 (setting [4]); 6.60 in the experiment with HLA-A*31:01 (setting [4]); 5.00 with HLA-A*33:01 (setting [4]); 7.37 in the experiment with HLA-A*68:01 (setting [4]).

In the case of LTDTEYRAR, the pKd in the experiment with HLA-A*11:01 (setting [1]) is at most 4.27; in the experiment with HLA-A*03:01 (setting [1]), at most 4.11; with HLA-A*31:01 (setting [1]), at most 4.11; in the experiment with HLA-A*33:01 (setting [1]), at most 4.11; with HLA-A*68:01 (setting [1]), at most 4.37.

With YVSAITQAER, the negative-log Kd (pKd) is 6.98 with HLA-A*31:01 (setting [5]) and 7.84 with HLA-A*68:01 (setting [5]).

Turning to LLYAAEMVEY, the pKd was 9.24 with HLA-A*11:01 (setting [1]); 8.41 with HLA-A*03:01 (setting [1]); 6.63 with HLA-A*31:01 (setting [1]); 4.77 with HLA-A*33:01 (setting [1]); 8.03 in the experiment with HLA-A*68:01 (setting [1]).

As to IVPFWITAIY, the negative logarithm of the Kd (pKd) with HLA-A*11:01 (setting [4]) was 5.99; with HLA-A*03:01 (setting [4]), 7.15; with HLA-A*31:01 (setting [4]) it was 5.88; with HLA-A*33:01 (setting [4]), 5.63; with HLA-A*68:01 (setting [4]) it was 6.75.

For DILTYNKTSK, the negative-log Kd (pKd) in the experiment with HLA-A*11:01 (setting [1]) is at most 4.68; with HLA-A*03:01 (setting [1]) it was 5.63; with HLA-A*31:01 (setting [1]), at most 4.42; in the experiment with HLA-A*33:01 (setting [1]), 5.75; with HLA-A*68:01 (setting [1]), 5.53.

AQQFANVISK: the pKd with HLA-A*11:01 (setting [1]) is 8.57; with HLA-A*03:01 (setting [1]) it was 7.08; with HLA-A*31:01 (setting [1]) it was 5.71; in the experiment with HLA-A*33:01 (setting [1]), at most 4.15; with HLA-A*68:01 (setting [1]) it was 4.75.

As for FMRFFQLLR, the negative-log Kd (pKd) is 6.45 with HLA-A*11:01 (setting [1]); 6.85 in the experiment with HLA-A*03:01 (setting [1]); 9.18 in the experiment with HLA-A*31:01 (setting [1]); 8.71 with HLA-A*33:01 (setting [1]); 7.93 in the experiment with HLA-A*68:01 (setting [1]).

Turning to EIKAEMQLK, the negative logarithm of the Kd (pKd) was 5.78 in the experiment with HLA-A*11:01 (setting [1]); 5.99 with HLA-A*03:01 (setting [1]); at most 4.36 with HLA-A*31:01 (setting [1]); 5.82 with HLA-A*33:01 (setting [1]); 7.80 in the experiment with HLA-A*68:01 (setting [1]).

On to FLLRHYYNKR, for which the pKd with HLA-A*11:01 (setting [1]) was 5.95; in the experiment with HLA-A*03:01 (setting [1]) it was 5.74; with HLA-A*31:01 (setting [1]), 7.79; with HLA-A*33:01 (setting [1]), 7.76; in the experiment with HLA-A*68:01 (setting [1]), 5.73.

Take YFSFKKCLVY: the pKd in the experiment with HLA-A*11:01 (setting [1]) is 6.97; with HLA-A*03:01 (setting [1]), 7.48; with HLA-A*31:01 (setting [1]), 5.56; in the experiment with HLA-A*33:01 (setting [1]), 5.04; with HLA-A*68:01 (setting [1]), 6.24.
